Biological target: 2019-nCoV spike (S) glycoprotein, prefusion-stabilized ectodomain (residues 1-1208, two stabilizing proline mutations) (2019-nCoV)
Experiment: cryo-EM structure

“2019-nCoV spike (S) glycoprotein, prefusion-stabilized ectodomain (residues 1-1208, two stabilizing proline mutations) (domain or fragment)” was tested, and the stoichiometry N was 3.

From publication PMC7164637
